Data published in article doi:10.1101/2021.05.18.444627 (bioRxiv, 2021).

T1: UL34^(174-194) peptide, unlabelled (HSV-1, UniProt P10218 174-194, N-terminal acetyl; C-terminal amide)
T1 peptide: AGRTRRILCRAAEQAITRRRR


Target: T1, UL34^(174-194) peptide, unlabelled
Test: cross-linking

Binder	binding result
Ac-RRSRSSAAGGTLGVVRRASRK-NH2 [UL31^(22-42) peptide (middle of the UL31 MPR)]	binds
Ac-RKSLPPHARK-NH2 [UL31^(41-50) peptide (UL31 mini-MPR)]	binds
